The results in this text go back to patent publication US20070248617A1 (published 2007).

The assay deals with T1, recombinant human RANK-hFc fusion protein (human, UniProt Q9Y6Q6 30-212, limits assumed).
T1 construct: also called hRANK; not shown: human Fc (hFc)
T1 sequence (looked up): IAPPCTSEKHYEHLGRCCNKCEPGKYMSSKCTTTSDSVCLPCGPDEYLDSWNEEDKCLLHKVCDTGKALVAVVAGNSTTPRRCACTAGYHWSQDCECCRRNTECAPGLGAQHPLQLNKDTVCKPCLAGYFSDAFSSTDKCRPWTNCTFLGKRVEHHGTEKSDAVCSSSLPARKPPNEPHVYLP
Nature of the assay: ELISA, human RANKL coated at 10 µg/ml, serial dilutions of human RANK-hFc, anti-hFc-HRP detection. The method, then:
To test whether the antibodies generated in mice have neutralizing activity, in vitro binding assays for both mouse and human RANKL and their cognate receptors mouse RANK and human RANK were established. ELISA plates were therefore coated with 10 μg/ml of either mouse or human RANKL protein and incubated with serial dilutions of a recombinant mouse RANK-hFc fusion protein or a recombinant human RANK-hFc fusion protein, respectively. Bound protein was detected with a horse raddish peroxidase conjugated anti-hFc antibody. […] Sera of mice immunized with mRANKL(155-174) coupled to Qβcapsid were then tested for their ability to inhibit the binding of mouse and human RANKL protein to their respective receptors. ELISA plates were therefore coated with either mouse or human RANKL protein at a concentration of 10 μg/ml, and co-incubated with serial dilutions of a pool of mouse sera from day 35 and 0.35 nM mouse or human RANK-hFc fusion protein, respectively. Binding of receptor to immobilized RANKL protein was detected with horse raddish peroxidase conjugated anti-hFc antibody.
(In an ELISA, binding on a coated surface is turned into a signal by an enzyme label.)

B1: human RANKL protein (ligand, UniProt O14788 140-317, looked up)
chain: IRAEKAMVDGSWLDLAKRSKLEAQPFAHLTINATDIPSGSHKVSLSSWYHDRGWAKISNMTFSNGKLIVNQDGFYYLYANICFRHHETSGDLATEYLQLMVYVTKTSIKIPSSHTLMKGGSTKYWSGNSEFHFYSINVGGFFKLRSGEEISIEVSNPSLLDPDQDATYFGAFKVRDID
notes: also called hRANKL
On to B1, for which the binding result is on record as “binds”.
